Data taken from patent publication US20190002846A1, “POLYPEPTIDES HAVING DEMETHYLATING ACTIVITY” (Genencor International B.V., priority 2015, published 2019).

Key:
[1] = Catechol oxidase activity assay: initial rate of 3-methoxycatechol oxidation at 400 nm (pH, copper and temperature optima); format: biochemical; conditions: for pHopt: 3-methoxycatechol oxidation, room temperature, 10 μM CuSO4, Carmody buffers pH3-9; for T range / pH range: >50% of maximum activity; for [CuSO4] range: >90% of maximum activity; for Topt: A400 after 1 h incubation, 20 to 70° C., 50 mM Bis-Tris pH 7.0, 20 or 50 μM copper; for [CuSO4]opt: at optimal pH, 50 mM Bis-Tris buffer pH 7.0, CuSO4 varied 1-1000 μM
Experimental: PPO activity was determined by measuring the initial rate of 3-methoxycatechol oxidation at 400 nm (extinction coefficient used: ε 1200 M^−1cm^−1). One unit of activity is defined as the amount of PPO activity that oxidizes 1 μmol of 3-methoxycatechol to quinone per minute. Substrate was used at a concentration of 4 mM.
The pH optima were determined by measuring the initial rate of 3-methoxycatechol oxidation with varying pHs, at room temperature and using a CuSO4 concentration of 10 μM. The pH was varied in the range of pH3-9 using Carmody buffers. Enzyme loading was applied resulting in A400 absorbance values in the range of 0.1-1. Protein concentration was determined using the BCA method.
Optimal copper concentrations for the PPOs were determined at the optimal pH by varying the concentration of CuSO4 in the range of 1-1000 μM. In these experiments the pH was controlled using 50 mM Bis-Tris buffer pH 7.0.
Temperature optima were determined by measuring A400 absorbance after 1 h incubation at temperatures in the range of 20 to 70° C. In these experiments the pH was controlled using 50 mM Bis-Tris buffer pH 7.0. Copper concentrations of (20 or 50 μM) were used to prevent chemical oxidation as background activity at higher copper concentrations.

[2] = Conversion of syringic acid, sinapic acid and syringol by crude PPOs, absorbance at 400 nm; format: biochemical; conditions: 4 mM substrate, crude PPO 8.2 μg/mL, pH 6.0 or 7.0, 50 μM CuSO4, room temperature, 2, 22 and 118 h
Experimental: Syringic acid, sinapic acid and syringol (4 mM) were incubated with crude PPO2, 4, 6 and 7 from Example 5 in 100 mM BisTris buffer pH 6.0 or 7.0 with 50 μM CuSO4. Crude PPOs were dosed on target protein with a final concentration of 8.2 μg/mL. Substrate blanks prepared without the addition of enzyme and enzyme blanks without the addition of substrate were included. Incubations were performed in microtiterplates with a total reaction volume of 150 μL at room temperature for approximately 120 h. After 2, 22 and 118 h absorbance at 400 nm was measured.

[3] = biological target: T1, RAC incubated with LPMO9B (Thermothelomyces thermophilus, UniProt G2QCJ3); test: RAC hydrolysis assay with LPMO9B and PPO2, PPO7 or AbTyr in the presence of sinapic acid or syringic acid; format: biochemical, Myceliophthora thermophila; conditions: for Activity: total release of non-oxidized and C1-oxidized gluco-oligosaccharides from RAC: LPMO9B 5 μg/ml alone = 100%, or with added enzyme, pH 5.0, 50° C., 24 h
T1 construct: made in house; host or cells: Myceliophthora thermophila C1 strain W1L#100.1Δpyr5ΔAlp1
T1 sequence (G2QCJ3 19-323): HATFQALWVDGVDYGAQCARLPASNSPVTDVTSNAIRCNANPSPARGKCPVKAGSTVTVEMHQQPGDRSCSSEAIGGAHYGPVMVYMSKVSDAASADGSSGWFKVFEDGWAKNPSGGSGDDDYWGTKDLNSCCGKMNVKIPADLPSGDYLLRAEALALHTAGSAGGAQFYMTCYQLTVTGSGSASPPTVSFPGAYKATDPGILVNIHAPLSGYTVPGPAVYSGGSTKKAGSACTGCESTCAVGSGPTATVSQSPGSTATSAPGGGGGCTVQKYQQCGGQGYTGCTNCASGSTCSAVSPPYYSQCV
Experimental: Reducing agents sinapic acid and syringic acid were obtained from Sigma-Aldrich (St. Louis, Mo., USA). RAC was prepared from Avicel by swelling it in phosphoric acid, (Zhang Y H P, Cui J, Lynd L R, & Kuang L R (2006) A transition from cellulose swelling to cellulose dissolution by o-phosphoric acid: Evidence from enzymatic hydrolysis and supramolecular structure. Biomacromolecules 7(2):644-648.). RAC was dissolved in 50 mM phospate buffer (pH 5.0) to a final concentration of 1.5 mg/ml. Copper chloride was added to a final concentration of 2.5 μM and dimethoxy containg reducing agent sinapic acid or syringic acid to a final concentration of 2 mM. LPMO9B (5 μg/ml) with or without PPO2 (5 μg/ml), PPO7 (5 μg/ml) or AbTyr (7.5 U/ml) were added and incubated for 24 h at 50° C. in a head-over-tail rotator in portions of 1 mL total volume (Stuart® rotator, Bibby Scientific LTD, Stone, UK) at 20 rpm. Products were analysed by HPAEC and MALDI-TOF MS as described previously. (Frommhagen M, Sforza S, Westphal A H, Visser J, Hinz S W, Koetsier M J et al. Discovery of the combined oxidative cleavage of plant xylan and cellulose by a new fungal polysaccharide monooxygenase. Biotechnology for Biofuels. 2015; 8:101. doi:10.1186/s13068-015-0284-1). The Activity denoted as “Activity*” represents total release of non-oxidized and C1-oxidized gluco-oligosaccharides from RAC incubated with LPMO9B in the presence of sinapic or syringic acid as a reducing agent and with addition of either AbTyr, PPO7 or PPO2. […] Standard deviations were less than 2%.

[4] = biological target: T1, RAC incubated with LPMO9B; test: RAC hydrolysis assay with LPMO9B and PPO7 or AbTyr in the presence of phenolic reducing agents; format: biochemical, Myceliophthora thermophila; conditions: for Activity: total release of non-oxidized and C1-oxidized gluco-oligosaccharides from RAC: LPMO9B alone = 100%, or with added enzyme, pH 5.0, 50° C., 24 h
Experimental: Phenolic reducing agents were obtained from Sigma-Aldrich (St. Louis, Mo., USA). RAC was prepared as described above and dissolved in 50 mM phospate buffer (pH 5.0) to a final concentration of 1.5 mg/ml. Copper chloride was added to a final concentration of 2.5 μM and a phenolic reducing agent to a final concentration of 2 mM. LPMO9B (5 μg/ml) with or without PPO7 (5 μg/ml) or AbTyr (7.5 U/ml) were added and incubated for 24 h at 50° C. in a head-over-tail rotator in portions of 1 mL total volume (Stuart® rotator, Bibby Scientific LTD, Stone, UK) at 20 rpm. Products were analysed by HPAEC and MALDI-TOF MS as described previously. (Frommhagen M, Sforza S, Westphal A H, Visser J, Hinz S W, Koetsier M J et al. Discovery of the combined oxidative cleavage of plant xylan and cellulose by a new fungal polysaccharide monooxygenase. Biotechnology for Biofuels. 2015; 8:101. doi:10.1186/s13068-015-0284-1). The Activity denoted as Activity * represents total release of non-oxidized and C1-oxidized gluco-oligosaccharides from RAC incubated with LPMO9B in the presence of a phenolic reducing agent and with addition of either AbTyr or PPO7. […] Standard deviations were less than 2%.

B1: PPO6: Myceliophthora thermophila C1 polyphenoloxidase with demethylating activity, mature form SEQ ID NO: 41 (protein, listed as Myceliophthora thermophila)
chain: AVKTVVITATTTVCPLSTRVCHGSSMISQSTNAPCSESTGITGSQSTAVTIPQSTDIISSQFSQFTDTTSSLSTGVACSSSPCPSNSQSTGTTSFESTGTTISQPTAVTNSSSTCLTSSQSTDAPSSESTGITISQSTGVTSSQSMSTPTSKSTAVPSSQSARVSTTSSSAKPSSTTETRPEPTLPNRAYPADIVDKLRDSGVDKLKEYLKSNPSNTGCTLENASIRREWSDLSVAEREEYIAAVKCLQSASPKSSKQQVPGARSRFDDFVATHINQTDSIHYTANFLSWHRYYVWAYEKALREECGYTGFQPYWNWDRYAADPANSPLFSGNSSSLSGNSVNGGCVTTGPFADMKVNLGPGASLAYNPRCLKRNISKSYAAMTTADKTYALITGSADIARFQDTMQAVPGVHAGGHFTIGGDPGGDVYSSPGDPAFWLHHAMIDRVWWIWQTHGLPGRLSEVAGSVAGSSRPGSGKDLVNLGVNGPAVAIENLLNTVGGLDGKMCYIYL
pHopt [1]: 7.0
T range [1]: 20-50 °C
pH range [1]: 6.0-8.5
[CuSO4] range [1]: 50 to 1000 µM
Topt [1]: 30 °C
[CuSO4]opt [1]: 200 µM
Conversion of substrates (absorbance at 400 nm) [2]: able to convert syringic acid, sinapic acid and syringol

B2: LPMO9B: Myceliophthora thermophila lytic polysaccharide monooxygenase, mature amino acid sequence SEQ ID NO: 93 (protein, listed as Myceliophthora thermophila)
chain: T1 sequence (G2QCJ3 19-323)
Activity in the absence of a reducing agent ([3]; no reducing agent): no activity was detected
Activity: total release of non-oxidized and C1-oxidized gluco-oligosaccharides from RAC ([3]; reducing agent sinapic acid 2 mM): 100%
Activity: total release of non-oxidized and C1-oxidized gluco-oligosaccharides from RAC ([3]; reducing agent syringic acid 2 mM): 100%
Activity in the absence of a reducing agent ([4]; no reducing agent): no activity was detected
Activity: total release of non-oxidized and C1-oxidized gluco-oligosaccharides from RAC ([4]; reducing agent 3,4-dihydroxy-5-methoxybenzoic acid 2 mM): 100%
Activity: total release of non-oxidized and C1-oxidized gluco-oligosaccharides from RAC ([4]; reducing agent 3,4-dihydroxy-5-methoxycinnamic acid 2 mM): 100%
Activity: total release of non-oxidized and C1-oxidized gluco-oligosaccharides from RAC ([4]; reducing agent 3,4-dihydroxybenzoic acid 2 mM): 100%
Activity: total release of non-oxidized and C1-oxidized gluco-oligosaccharides from RAC ([4]; reducing agent 3-hydroxy-4-methoxycinnamic acid 2 mM): 100%
Activity: total release of non-oxidized and C1-oxidized gluco-oligosaccharides from RAC ([4]; reducing agent 3-methylcatechol 2 mM): 100%
Activity: total release of non-oxidized and C1-oxidized gluco-oligosaccharides from RAC ([4]; reducing agent 4-allyl-2,4-methoxyphenol 2 mM): 100%
Activity: total release of non-oxidized and C1-oxidized gluco-oligosaccharides from RAC ([4]; reducing agent 4-hydroxy-3-methoxyphenylactone 2 mM): 100%
Activity: total release of non-oxidized and C1-oxidized gluco-oligosaccharides from RAC ([4]; reducing agent caffeic acid 2 mM): 100%
Activity: total release of non-oxidized and C1-oxidized gluco-oligosaccharides from RAC ([4]; reducing agent coniferyl aldehyde 2 mM): 100%
Activity: total release of non-oxidized and C1-oxidized gluco-oligosaccharides from RAC ([4]; reducing agent ferulic acid 2 mM): 100%
Activity: total release of non-oxidized and C1-oxidized gluco-oligosaccharides from RAC ([4]; reducing agent gallic acid 2 mM): 100%
Activity: total release of non-oxidized and C1-oxidized gluco-oligosaccharides from RAC ([4]; reducing agent guaiacol 2 mM): 100%
Activity: total release of non-oxidized and C1-oxidized gluco-oligosaccharides from RAC ([4]; reducing agent hesperidin 2 mM): 100%
Activity: total release of non-oxidized and C1-oxidized gluco-oligosaccharides from RAC ([4]; reducing agent homovanillic acid 2 mM): 100%
Activity: total release of non-oxidized and C1-oxidized gluco-oligosaccharides from RAC ([4]; reducing agent vanillic acid 2 mM): 100%

B3: PPO4: Myceliophthora thermophila C1 polyphenoloxidase with demethylating activity, mature form SEQ ID NO: 37 (protein, listed as Myceliophthora thermophila)
chain: DAVLDLQEKGRPAIDAQLAKSTTCTKEKLQVRREWGDISAEEKKAYIAAMLCIMEKPSRLDPNQFPGAKSRYDDFVVVHMNQTLSIHGTGNFLSWHRYYTWVFERALQEECGYNGTQPYWDWGRWADDPENSPIFDGSDTSLSGNGEYIEHRASGFIPAGNGGGCVKSGPFKDMVVHLGPVAPAIDPAPPANPRRDGYGDNPRCLRRDISNQLSSKYARTQDIVDLITTSADIGTFQTVMQGAGGFGVGPGGMGVHAAGHFTIAGDPGGDFYTSPNDPAFWVHHGMIDRTWTIWQSQDLDNRLQVIAGGSSMMGGPPQTLDDPVDLGVVADKVYPIRDLVSVVDGPFCYVYE
pHopt [1]: 7.0
T range [1]: 30-60 °C
pH range [1]: 5.0-7.5
[CuSO4] range [1]: 20 to 1000 µM
Topt [1]: 55 °C
[CuSO4]opt [1]: 200 µM
Conversion of substrates (absorbance at 400 nm) [2]: only able to use syringic acid as a substrate
